{
  "source": "patent US20170247465A1",
  "about": "“COMBINATION THERAPY FOR TREATMENT OF CANCER” (OncoMed Pharmaceuticals, Inc., priority 2014, published 2017)",
  "molecules": {"B1": {"name": "OMP-18R5: anti-FZD antibody, IgG2, also known as vantictumab; heavy chain SEQ ID NO:3, light chain SEQ ID NO:4 (antibody)", "heavy": "EVQLVESGGGLVQPGGSLRLSCAASGFTFSHYTLSWVRQAPGKGLEWVSVISGDGSYTYYADSVKGRFTISSDNSKNTLYLQMNSLRAEDTAVYYCARNFIKYVFANWGQGTLVTVSSASTKGPSVFPLAPCSRSTSESTAALGCLVKDYFPEPVTVSWNSGALTSGVHTFPAVLQSSGLYSLSSVVTVPSSNFGTQTYTCNVDHKPSNTKVDKTVERKCCVECPPCPAPPVAGPSVFLFPPKPKDTLMISRTPEVTCVVVDVSHEDPEVQFNWYVDGVEVHNAKTKPREEQFNSTFRVVSVLTVVHQDWLNGKEYKCKVSNKGLPAPIEKTISKTKGQPREPQVYTLPPSREEMTKNQVSLTCLVKGFYPSDIAVEWESNGQPENNYKTTPPMLDSDGSFFLYSKLTVDKSRWQQGNVFSCSVMHEALHNHYTQKSLSLSPGK", "light": "DIELTQPPSVSVAPGQTARISCSGDNIGSFYVHWYQQKPGQAPVLVIYDKSNRPSGIPERFSGSNSGNTATLTISGTQAEDEADYYCQSYANTLSLVFGGGTKLTVLGQPKAAPSVTLFPPSSEELQANKATLVCLISDFYPGAVTVAWKADSSPVKAGVETTTPSKQSNNKYAASSYLSLTPEQWKSHRSYSCQVTHEGSTVEKTVAPTECS"}},
  "key": {"[1]": {"test": "Phase 1b study of vantictumab in combination with docetaxel in NSCLC patients / Phase 1 program", "assay_type": "in vivo", "settings": "Cohorts 1 and 2: vantictumab 5 and 10 mg/kg Day 1 of 21-day cycle with docetaxel 75 mg/m^2", "from_the_text": "The study is an open-label Phase 1b dose-escalation study of vantictumab in combination with docetaxel in patients with previously treated recurrent or advanced non-small cell lung cancer (NSCLC). The primary objectives of the study are to determine the safety and the maximum tolerated dose of vantictumab in combination with docetaxel. To identify a recommended Phase 2 dose for vantictumab in combination with docetaxel. The secondary objectives are to characterize the pharmacokinetics (PK) of vantictumab when administered in combination with docetaxel, to characterize the immunogenicity of vantictumab, and to make preliminary assessment of vantictumab efficacy when administered in combination with docetaxel.\nVantictumab is administered on Day 1 of each 21-day cycle. The dose levels of vantictumab for Cohorts 1 and 2 were 5 mg/kg and 10 mg/kg, respectively. For Cohorts 1 and 2, docetaxel (75 mg/m^2) is administered IV on Day 1 of each cycle. […] Patients of Cohorts 3 and 4 will be administered vantictumab at 2 mg/kg and 4 mg/kg once every 3 weeks, respectively. No dose escalation of vantictumab will be allowed within a dose cohort. A staggered dosing regimen will be evaluated in Cohorts 3 and 4. Docetaxel (75 mg/m^2) will be administered IV on Day 3 of each cycle."}, "[2]": {"system": "OMP-B90 breast tumor cells", "test": "OMP-B90 breast tumor xenograft, staggered dosing of Wnt inhibitors and paclitaxel (Example 9)", "assay_type": "in vivo, NOD/SCID mice", "settings": "Wnt pathway inhibitor 25 mg/kg every two weeks, administered 2 days prior to paclitaxel 10 mg/kg once a week, i.p., FIG. 7", "description": "FIG. 7A-7B. Inhibition of breast tumor growth in vivo by a Wnt pathway inhibitor in combination with a taxane using a staggered dosing schedule. FIG. 7A. OMP-B90 breast tumor cells were injected subcutaneously into NOD/SCID mice. Mice were treated with control antibody (-•-), paclitaxel (-▴-), a combination of OMP-18R5 and paclitaxel, where OMP-18R5 was administered on the same day as paclitaxel (-□-), or a combination of OMP-18R5 and paclitaxel, where OMP-18R5 was administered 2 days prior to administration of paclitaxel (-⋄-). FIG. 7B. OMP-B90 breast tumor cells were injected subcutaneously into NOD/SCID mice. Mice were treated with control antibody (-•-), OMP-54F28 (-▪-), paclitaxel (-▴-), a combination of OMP-54F28 and paclitaxel, where OMP-54F28 was administered on the same day as paclitaxel (-□-), or a combination of OMP-54F28 and paclitaxel, where OMP-54F28 was administered 2 days prior to administration of paclitaxel (-⋄-). OMP-18R5, OMP-54F28 and control antibody were administered at 25 mg/kg and paclitaxel was administered at 10 mg/kg. […]\nSingle cell suspensions of xenograft OMP-B90 breast tumor cells were injected subcutaneously into 6-8 week old NOD/SCID mice. […] Tumor growth was monitored and tumor volumes were measured with electronic calipers at the indicated time points. Data are expressed as mean±S.E.M."}, "[3]": {"system": "OMP-C28 colon tumor cells", "test": "OMP-C28 colon tumor xenograft, staggered dosing of Wnt inhibitors and nab-paclitaxel (Example 10)", "assay_type": "in vivo, NOD/SCID mice", "settings": "Wnt pathway inhibitor 25 mg/kg every two weeks, administered 2 days prior to nab-paclitaxel 15 mg/kg once a week, i.p.; versus single agents; FIG. 8", "description": "FIG. 8A-8B. Inhibition of colon tumor growth in vivo by a Wnt pathway inhibitor in combination with a taxane using a staggered dosing schedule. FIG. 8A. OMP-C28 colon tumor cells were injected subcutaneously into NOD/SCID mice. Mice were treated with control antibody (-•-), OMP-18R5 (-▴-), nab-paclitaxel (-▪-), or a combination of OMP-18R5 and nab-paclitaxel, where OMP-18R5 was administered 2 days prior to administration of nab-paclitaxel (-⋄-). FIG. 8B. OMP-C28 colon tumor cells were injected subcutaneously into NOD/SCID mice. Mice were treated with control antibody (-•-), OMP-54F28 (-▴-), nab-paclitaxel (-▪-), or a combination of OMP-54F28 and nab-paclitaxel, where OMP-54F28 was administered 2 days prior to administration of nab-paclitaxel (-⋄-). OMP-18R5, OMP-54F28 and control were administered at 25 mg/kg and nab-paclitaxel was administered at 15 mg/kg. OMP-18R5, OMP-54F28 and control were administered once every two weeks, paclitaxel was administered once a week, and all agents were administered intraperitoneally. Data is shown as tumor volume (mm^3) over days post treatment.\nSingle cell suspensions of xenograft OMP-C28 colon tumor cells were injected subcutaneously into 6-8 week old NOD/SCID mice. […] Tumor growth was monitored and tumor volumes were measured with electronic calipers at the indicated time points. Data are expressed as mean±S.E.M."}},
  "data": [
    {"molecule": "B1", "values": [
      {"measurement": "adverse events leading to discontinuation", "setting": "[1]", "result": "fragility fractures observed"},
      {"measurement": "regression of established tumors", "setting": "[2]", "result": "induced a regression of the established breast tumors"},
      {"measurement": "inhibition of tumor growth (tumor volume)", "setting": "[2]; versus other dosing regimens", "result": "significantly better at inhibiting tumor growth of the OMP-B90 breast tumor cells than any of the other dosing regimens"},
      {"measurement": "inhibition of tumor growth (tumor volume)", "setting": "[3]", "result": "inhibited tumor growth of the OMP-C28 colon tumor cells to a greater extent than either the Wnt pathway inhibitors or nab-paclitaxel alone"}
    ]}
  ]
}
